Earlier results on one substance are cited in PMC7096212.

Data set [1] addresses insulin (Homo sapiens) (UniProt P01308).
The target in data set [2] is DILP-5 (Drosophila melanogaster) (UniProt Q7KUD5).
The target in data set [3] is IGF-1 (Homo sapiens) (UniProt P05019).
Sequence of UniProt P05019 (P05019 49-118): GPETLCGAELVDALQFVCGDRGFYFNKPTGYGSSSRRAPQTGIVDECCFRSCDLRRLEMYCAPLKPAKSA

Sequence of UniProt P01308 (P01308 90-110): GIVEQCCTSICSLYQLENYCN
Sequence of UniProt Q7KUD5 (Q7KUD5 23-50, chain 1 of 2): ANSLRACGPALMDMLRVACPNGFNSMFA
Sequence of UniProt Q7KUD5 (Q7KUD5 84-108, chain 2 of 2): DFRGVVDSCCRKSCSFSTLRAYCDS

For the substance IBP (from UniProt Q09024), the Kd in data set [1] is 0.135 µM; in data set [2], 0.002 µM; in data set [3] it was 0.0136 µM.

Broadly, the Kd is a measure of binding affinity in units of concentration.
